The values below are quoted from earlier work in article PMC3218432.

For orientation: pKa means the negative logarithm of the acid dissociation constant.

The series addresses Asp85 (UniProt position 98, WARYADWLFTT).

As for “Bacteriorhodopsin (Halobacterium salinarum (not stated in the article; described as archaeal))”, the pKa is 2.3.
